# From publication PMC6011931, “Substrate scope of a dehydrogenase from Sphingomonas species A1 and its potential application in the synthesis of rare sugars and sugar derivatives” (Microbial Biotechnology, 2018)
# B1: SpsADH (Sphingomonas sp. A1) (protein)
# chain: MFSDLKGKRILITGSTEGIGMATAIELARYGAVVGLNSHVDPADPALLLGKLREAGGDGAFFRADITKTAECQRLVSAFVERFDGIDVLINNAGGLAGRSNLENIDDAFYDRVMDLNGRSVLMMTKFAIPHLRASAKASGTTSAVISTGSIAAREGGGIGAGVYAASKAWLHDIHRNWVKEFTKDSIRFNIVAPGTVDTAFHADKSDELKTRIANSIPMGRFGTVQELAPAYVFFASHAASGYITGQILDVNGGQICP
# notes: full length (258 residues), codon-optimised synthetic gene, N-terminal His6-tag kept (pET-28a), E. coli BL21(DE3), 29 500 Da; NAD+-dependent isoenzyme (printed locus SPH3227 may belong to the NADP+-dependent isoenzyme)
# Key:
# Assay in all cases: purified protein
# Conditions in all cases: oxidation, 1 mM NAD+, 50 mM ammonium bicarbonate pH 7.9, 25 °C
# [1] = substrate: O=C(O)[C@@H](O)[C@@H](O)[C@H](O)[C@H](O)CO
# [2] = substrate: O=C(O)[C@H](O)[C@@H](O)[C@H](O)[C@H](O)CO
# [3] = substrate: O=C(O)[C@@H](O)[C@H](O)[C@H](O)[C@H](O)CO
# [4] = substrate: O=C(O)[C@H](O)[C@H](O)[C@H](O)[C@H](O)CO
# [5] = substrate: O=C(O)C(=O)C[C@H](O)[C@H](O)CO; format: biochemical, Sphingomonas sp. A1
# [6] = substrate: O=C(O)[C@@H](O)[C@@H](O)[C@@H](O)[C@H](O)CO; format: biochemical, Sphingomonas sp. A1
# [7] = substrate: O=C(O)[C@H](O)[C@@H](O)[C@@H](O)[C@H](O)CO; format: biochemical, Sphingomonas sp. A1
# [8] = substrate: O=C(O)[C@@H](O)[C@H](O)[C@H](O)CO; format: biochemical, Sphingomonas sp. A1
# [9] = substrate: O=C(O)[C@H](O)[C@@H](O)[C@H](O)CO; format: biochemical, Sphingomonas sp. A1
# [10] = substrate: O=C(O)[C@@H](O)[C@@H](O)[C@H](O)CO; format: biochemical, Sphingomonas sp. A1
# [11] = substrate: O=C(O)[C@H](O)[C@H](O)[C@H](O)CO; format: biochemical, Sphingomonas sp. A1
# [12] = substrate: OCC(O)CO; format: biochemical, Sphingomonas sp. A1
protein,measurement,setting,value
B1,Km,[1],14 ± 1 mM
same,Vmax,[1],1.1 µmol/min/mg
same,kcat,[1],0.53 s⁻¹
same,kcat/Km,[1],38 M⁻¹ s⁻¹
same,Km,[2],12 ± 1 mM
same,Vmax,[2],2 µmol/min/mg
same,kcat,[2],0.98 s⁻¹
same,kcat/Km,[2],82 M⁻¹ s⁻¹
same,Km,[3],24 ± 4 mM
same,Vmax,[3],0.39 µmol/min/mg
same,kcat,[3],0.19 s⁻¹
same,kcat/Km,[3],8 M⁻¹ s⁻¹
same,Km,[4],16 ± 2 mM
same,Vmax,[4],0.36 µmol/min/mg
same,kcat,[4],0.18 s⁻¹
same,kcat/Km,[4],11 M⁻¹ s⁻¹
same,Km,[5],13 ± 3 mM
same,Vmax,[5],2.8 µmol/min/mg
same,kcat,[5],1.4 ± 0.08 s⁻¹
same,kcat/Km,[5],100 ± 30 M⁻¹ s⁻¹
same,Km,[6],6 ± 1 mM
same,Vmax,[6],0.042 µmol/min/mg
same,kcat,[6],0.021 ± 0.001 s⁻¹
same,kcat/Km,[6],3.4 ± 0.9 M⁻¹ s⁻¹
same,Km,[7],50 ± 5 mM
same,Vmax,[7],0.016 µmol/min/mg
same,kcat,[7],0.0079 ± 0.0003 s⁻¹
same,kcat/Km,[7],0.16 ± 0.02 M⁻¹ s⁻¹
same,Km,[8],27 ± 3 mM
same,Vmax,[8],0.01 µmol/min/mg
same,kcat,[8],0.0048 ± 0.0001 s⁻¹
same,kcat/Km,[8],0.18 ± 0.02 M⁻¹ s⁻¹
same,Km,[9],24 ± 2 mM
same,Vmax,[9],0.066 µmol/min/mg
same,kcat,[9],0.032 ± 0.002 s⁻¹
same,kcat/Km,[9],1.4 ± 0.2 M⁻¹ s⁻¹
same,Km,[10],27 ± 2 mM
same,Vmax,[10],0.0086 µmol/min/mg
same,kcat,[10],0.0042 ± 0.0001 s⁻¹
same,kcat/Km,[10],0.16 ± 0.02 M⁻¹ s⁻¹
same,Km,[11],16 ± 1 mM
same,Vmax,[11],0.01 µmol/min/mg
same,kcat,[11],0.0052 ± 0.0001 s⁻¹
same,kcat/Km,[11],0.33 ± 0.03 M⁻¹ s⁻¹
same,Km,[12],100 ± 10 mM
same,Vmax,[12],0.011 µmol/min/mg
